Laboratory results published in US20040018558A1 (published 2004).
Where no end group is shown, it is not given here.

How the values were obtained:
[1] = target: T1, light-activated rhodopsin (bovine rod outer segment membranes) (bovine, UniProt P02699 1-348, retinylidene chromophore bound to Lys-296); assay: LacI display panning, light-activated ROS membranes
T1 construct: whole, on cells; native receptor in membrane fragments immobilised on wells, not intact cells; also called metarhodopsin II; MII
T1 sequence (P02699 whole entry, the tested form may be a part): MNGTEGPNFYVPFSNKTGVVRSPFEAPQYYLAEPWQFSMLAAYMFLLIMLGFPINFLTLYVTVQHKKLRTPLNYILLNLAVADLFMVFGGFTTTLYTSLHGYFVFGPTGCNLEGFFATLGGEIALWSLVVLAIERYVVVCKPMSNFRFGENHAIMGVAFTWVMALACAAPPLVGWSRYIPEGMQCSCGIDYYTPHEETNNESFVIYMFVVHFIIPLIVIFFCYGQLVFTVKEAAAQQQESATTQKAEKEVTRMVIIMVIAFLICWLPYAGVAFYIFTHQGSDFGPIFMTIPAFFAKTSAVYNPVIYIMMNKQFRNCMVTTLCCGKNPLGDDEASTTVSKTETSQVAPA
Description: For screening of the library by “panning,” rhodopsin receptors prepared according to Example 5 were immobilized directly on Immulon 4 (Dynatech) microtiter wells (0.1-1 μg of protein per well) in cold 35 mM HEPES, pH 7.5, containing 0.1 mM EDTA, 50 mM KCl and 1 mM dithiothreitol (HEK/DTT). After shaking for one hour at 4° C., unbound membrane fragments were washed away with HEK/DTT. The wells were blocked with 100 μl 2% BSA in HEKL (35 mM HEPES; 0.1 mM EDTA; 50 mM KCl; 0.2 M α-lactose; pH 7.5, with 1 mM DTT). For rounds 1 and 2, BSA was used for blocking; in later rounds 1% nonfat dry milk was used. For the first round of panning, about 24 wells of a 96-well plate were used. In subsequent rounds, 8 wells with receptor and 8 wells without receptor were prepared.
The Gt library was thawed (2 mL aliquot) and mixed with 6 mL lysis buffer on ice. Lysis buffer contains 4.25 mL HE (25 mM HEPES: 0.1 mM EDTA; pH 7.5); 1 mL 50% glycerol; 750 μL 10 mg/mL protease-free BSA in HE; 10 μL 0.5 M DTT; and 6.25 μL 0.2 M PMSF. Freshly prepared lysozyme solution (150 μL 10 mg/mL lysozyme in cold HE) was added and the tube was gently inverted several times and incubated on ice for no more than two minutes. The extent of lysis is evidenced by an increase in viscosity that can be observed by noting the slow migration of bubbles to the top of the tube after mixing. Lysis was terminated by mixing in 2 mL 20% lactose and 250 μL 2M KCl. The tube was centrifuged immediately at 13,000×g for 15 minutes at 4° C. and the supernatant transferred to a new tube. A small aliquot of 0.1% (the PRE sample) was saved in a separate, labeled tube. […] Immediately thereafter, the crude bacterial lysate from the peptide library (200 μL) was added to each well and allowed to shake gently for one hour at 4° C. For round 2, this same procedure was followed. In round 3, the amount of lysate used was reduced to 100 μL. In subsequent rounds, the lysate was diluted 1:10 in HEKL/BSA.

[2] = target: T2, rhodopsin (activation state not stated) (bovine, UniProt P02699 1-348); assay: ELISA of lysates, OD450 with receptor minus without receptor
T2 construct: whole, on cells; same protein as m1; also called EDTA-washed rhodopsin
T2 sequence (P02699 whole entry): as the sequence (P02699 whole entry, the tested form may be a part) above
Description: The methods of Example 7 repeated using rhodopsin screening with a Gt library. To identify the rank order of binding, the lysates were analyzed using ELISA methods in which the secondary antibody was conjugated to HRP. Following addition of the substrate, the microplate was read using a spectrophotometer. The binding is the OD₄₅₀ for wells with receptor—OD₄₅₀ for wells in which no receptor (control wells with empty lipid vesicles).

[3] = target: recombinant reconstituted β2 adrenergic receptor; assay: ELISA of clones panned from the Gs library, reconstituted β2 adrenergic receptor

Q: Does IHASLRDCGLF (peptide, not shown: small tags and cut ends, also: fused to LacI carrier via linker, letters not given here) [Clone No. 11 (Table IX) IHASLRDCGLF] bind [1]?
A: binds

Q: Does IFLNLKDCGLF (peptide, not shown: small tags and cut ends, also: fused to LacI carrier via linker, letters not given here) [Clone No. 14 (Table IX) IFLNLKDCGLF] bind [1]?
A: binds

Q: Does IRENLEDCGLF (peptide, not shown: small tags and cut ends, also: fused to LacI carrier via linker, letters not given here) [Clone No. 15/28 (Table IX) IRENLEDCGLF] bind [1]?
A: binds

Q: Does IIDNLKDCGLF (peptide, not shown: small tags and cut ends, also: fused to LacI carrier via linker, letters not given here) [Clone No. 16 (Table IX) IIDNLKDCGLF] bind [1]?
A: binds

Q: Which ELISA [2] does the source give for IRDNLKDCGLF (peptide, not shown: small tags and cut ends, also: fused to fusion carrier of the lysate via linker, not given here, second of two rows labelled L10) [L10 IRDNLKDCGLF] here?
A: 0.162 OD450

Q: Does MRESLKDCGLF (peptide, not shown: small tags and cut ends, also: fused to LacI carrier via linker, letters not given here) [Clone No. 17 (Table IX) MRESLKDCGLF] bind [1]?
A: binds

Q: Does IRETLKDCGLL (peptide, not shown: small tags and cut ends, also: fused to LacI carrier via linker, letters not given here) [Clone No. 19 (Table IX) IRETLKDCGLL] bind [1]?
A: binds

Q: Does ILADVIDCGLF (peptide, not shown: small tags and cut ends, also: fused to LacI carrier via linker, letters not given here) [Clone No. 26 (Table IX) ILADVIDCGLF] bind [1]?
A: binds

B1: Clone No. 27 (Table IX) MCESLKECGLF (peptide, not shown: small tags and cut ends)
chain: MCESLKECGLF
modifications: cysteine pairing not given here; also: fused to LacI carrier via linker, letters not given here
Q: Does B1 bind [1]?
A: binds

Q: Does IQGVLKDCGLL (peptide, not shown: small tags and cut ends, also: fused to LacI carrier via linker, letters not given here) [Clone No. 9 (Table IX) IQGVLKDCGLL] bind [1]?
A: binds

B2: Clone No. 10 (Table IX) ICENLKECGLF (peptide, not shown: small tags and cut ends)
chain: ICENLKECGLF
modifications: cysteine pairing not given here; also: fused to LacI carrier via linker, letters not given here
Q: Does B2 bind [1]?
A: binds

Q: MLDNLKDCGLF (peptide, not shown: small tags and cut ends, also: fused to lysate carrier and linker, not given here) [L7 MLDNLKDCGLF] was tested. Which ELISA [2] did it give?
A: 0.525 OD450

Q: Does MLENLKDCGLF (peptide, not shown: small tags and cut ends, also: fused to LacI carrier via linker, letters not given here) [Clone No. 18 (Table IX) MLENLKDCGLF] bind [1]?
A: binds

Q: Does VLEDLKSCGLF (peptide, not shown: small tags and cut ends, also: fused to LacI carrier via linker, letters not given here) [Clone No. 23 (Table IX) VLEDLKSCGLF] bind [1]?
A: binds

Q: With QGMQLRRFKLR (peptide, not shown: small tags and cut ends, not fully specified) [AG1 QGMQLRRFKLR] as the binder, how does the ELISA [3] read?
A: 0.435

Q: RWLHWQYRGRG (peptide, not shown: small tags and cut ends, not fully specified) [AG20 RWLHWQYRGRG] was tested. Which ELISA [3] did it give?
A: 0.431

Q: For PRPRLLRFKIP (peptide, not shown: small tags and cut ends, also: fused to carrier via linker, not given here) [AG19 PRPRLLRFKIP], which ELISA [3] is on record?
A: 0.361

Q: Does MLKNLKDCGMF (peptide, not shown: small tags and cut ends, also: fused to LacI carrier via linker, letters not given here) [Clone No. 24 (Table IX) MLKNLKDCGMF] bind [1]?
A: binds

Q: How did the ELISA [3] turn out when QGEHLRQLQLQ (peptide, not shown: small tags and cut ends, not fully specified) [AG2 QGEHLRQLQLQ] was run?
A: 0.33

Q: Which ELISA [3] does the source give for QRLRLGPDELF (peptide, not shown: small tags and cut ends, not fully specified) [AG4 QRLRLGPDELF] here?
A: 0.291

Q: With QRIHRRPFKFF (peptide, not shown: small tags and cut ends, not fully specified) [BAR1 QRIHRRPFKFF] as the binder, how does the ELISA [3] read?
A: 0.218

Q: QRMPLRLFEFL (peptide, not shown: small tags and cut ends, not fully specified) [AG3 QRMPLRLFEFL] was tested. Which ELISA [3] did it give?
A: 0.217

Q: How did the ELISA [3] turn out when QRVHLRQDELL (peptide, not shown: small tags and cut ends, not fully specified) [BAR2 QRVHLRQDELL] was run?
A: 0.197

Q: DRMHLWRFGLL (peptide, not shown: small tags and cut ends, not fully specified) [AG11 DRMHLWRFGLL] was tested. Which ELISA [3] did it give?
A: 0.192

Q: With QRMPLRQYELL (peptide, not shown: small tags and cut ends, not fully specified) [AG9 QRMPLRQYELL] as the binder, how does the ELISA [3] read?
A: 0.19

Q: QWMDLRQHELL (peptide, not shown: small tags and cut ends, not fully specified) [BAR3 QWMDLRQHELL] was tested. Which ELISA [3] did it give?
A: 0.185

Q: How did the ELISA [3] turn out when QRMNLGPCGLL (peptide, not shown: small tags and cut ends, not fully specified) [AG18 QRMNLGPCGLL] was run?
A: 0.155

Q: With NCMKFRSCGLF (peptide, not shown: small tags and cut ends, not fully specified; cysteine pairing not given here) [BAR20 NCMKFRSCGLF] as the binder, how does the ELISA [3] read?
A: 0.079

Q: Does LLDNIKDCGLF (peptide, not shown: small tags and cut ends, also: fused to LacI carrier via linker, letters not given here) [Clone No. 3 (Table IX) LLDNIKDCGLF] bind [1]?
A: binds

Q: How did the ELISA [3] turn out when QRLHLRGYEFL (peptide, not shown: small tags and cut ends, not fully specified) [AG13 QRLHLRGYEFL] was run?
A: 0.054

Q: ERLHRRLFQLH (peptide, not shown: small tags and cut ends, not fully specified) [BAR8 ERLHRRLFQLH] was tested. Which ELISA [3] did it give?
A: 0.047

Q: With PCIQLGQYESF (peptide, not shown: small tags and cut ends, not fully specified) [BAR40 PCIQLGQYESF] as the binder, how does the ELISA [3] read?
A: 0.028

Q: Which ELISA [3] does the source give for QRLRLRKYRLF (peptide, not shown: small tags and cut ends, not fully specified) [BAR31 QRLRLRKYRLF] here?
A: 0.026

Q: For IVEILEDCGLF (peptide, not shown: small tags and cut ends, also: fused to fusion carrier of the lysate via linker, not given here) [L33 IVEILEDCGLF], which ELISA [2] is on record?
A: 1.01 OD450

Q: Does ILTKLTDCGLF (peptide, not shown: small tags and cut ends, also: fused to LacI carrier via linker, letters not given here) [Clone No. 4 (Table IX) ILTKLTDCGLF] bind [1]?
A: binds

Q: Does LRESLKQCGLF (peptide, not shown: small tags and cut ends, also: fused to LacI carrier via linker, letters not given here) [Clone No. 6 (Table IX) LRESLKQCGLF] bind [1]?
A: binds
